{"source": "patent US10428327B2", "about": "“Compositions and methods for enhancing homologous recombination” (LIFE TECHNOLOGIES CORPORATION, priority 2016, dated 2019)", "molecules": {"B1": {"name": "PS100: phosphorothioate 100-mer ssDNA, BFP point mutation, SEQ ID 45 (nucleic acid)", "DNA": "{P}-dA*dC*dCdGdGdCdAdAdGdCdTdGdCdCdCdGdTdGdCdCdCdTdGdGdCdCdCdAdCdCdCdTdCdTdGdAdCdCdAdCdCdCdTdGdAdCdCdTdAdCdGdGdCdGdTdGdCdAdGdTdGdCdTdTdCdAdGdCdCdGdCdTdAdCdCdCdCdGdAdCdCdAdCdAdTdGdAdAdGdCdAdGdCdAdCdGdA*dC*dT"}, "B2": {"name": "PS70: phosphorothioate 70-mer ssDNA, BFP point mutation, SEQ ID 51 (nucleic acid)", "DNA": "{P}-dC*dC*dCdGdTdGdCdCdCdTdGdGdCdCdCdAdCdCdCdTdCdGdTdGdAdCdCdAdCdCdCdTdGdAdCdCdTdAdCdGdGdCdGdTdGdCdAdGdTdGdCdTdTdCdAdGdCdCdGdCdTdAdCdCdCdCdGdA*dC*dC"}, "B3": {"name": "PS90: phosphorothioate 90-mer ssDNA, BFP point mutation, SEQ ID 47 (nucleic acid)", "DNA": "GCAAGCTGCCCGTGCCCTGGCCCACCCTCGTGACCACCCTGACCTACGGCGTGCAGTGCTTCAGCCGCTACCCCGACCACATGAAGCAGC", "modifications": "5' phosphate, modified ends, chemistry not fully specified"}, "B4": {"name": "90: unmodified 90-mer ssDNA, BFP point mutation, SEQ ID 46 (nucleic acid)", "DNA": "GCAAGCTGCCCGTGCCCTGGCCCACCCTCGTGACCACCCTGACCTACGGCGTGCAGTGCTTCAGCCGCTACCCCGACCACATGAAGCAGC", "modifications": "unmodified DNA"}, "B5": {"name": "45-3′: dsDNA donor with 45-base 3′ overhangs, annealed SEQ ID 95 and 96 (nucleic acid)", "chain 1": "GACTACAAAGACGATGACGACAAGAATTCTTACGGCGTGCAGTGCTTCAGCCGCTACCCCGACCACATGAAGCAGCAC", "chain 2": "AAGAATTCTTGTCGTCATCGTCTTTGTAGTCGGTCAGGGTGGTCACGAGGGTGGGCCAGGGCACGGGCAGCTTGCCGG", "modifications": "chemistry not fully specified"}, "B6": {"name": "80: unmodified 80-mer ssDNA, BFP point mutation, SEQ ID 48 (nucleic acid)", "DNA": "GCTGCCCGTGCCCTGGCCCACCCTCGTGACCACCCTGACCTACGGCGTGCAGTGCTTCAGCCGCTACCCCGACCACATGA", "modifications": "DNA, backbone not given here"}, "B7": {"name": "24-3′: dsDNA donor with 24-base 3′ overhangs, annealed SEQ ID 89 and 90 (nucleic acid)", "chain 1": "dG*dA*dCdTdAdCdAdAdAdGdAdCdGdAdTdGdAdCdGdAdCdAdAdGdAdAdTdTdCdTdTdAdCdGdGdCdGdTdGdCdAdGdTdGdCdTdTdCdAdGdCdCdGdCdTdAdCdC*dC*dC", "chain 2": "dA*dA*dGdAdAdTdTdCdTdTdGdTdCdGdTdCdAdTdCdGdTdCdTdTdTdGdTdAdGdTdCdGdGdTdCdAdGdGdGdTdGdGdTdCdAdCdGdAdGdGdGdTdGdGdGdC*dC*dA", "modifications": "further chemistry not fully specified"}, "B8": {"name": "70: unmodified 70-mer ssDNA, BFP point mutation, SEQ ID 50 (nucleic acid)", "DNA": "CCCGTGCCCTGGCCCACCCTCGTGACCACCCTGACCTACGGCGTGCAGTGCTTCAGCCGCTACCCCGACC", "modifications": "DNA, backbone not given here"}, "B9": {"name": "36-3′: dsDNA donor with 36-base 3′ overhangs, annealed SEQ ID 93 and 94 (nucleic acid)", "chain 1": "dA*dA*dGdAdAdTdTdCdTdTdGdTdCdGdTdCdAdTdCdGdTdCdTdTdTdGdTdAdGdTdCdGdGdTdCdAdGdGdGdTdGdGdTdCdAdCdGdAdGdGdGdTdGdGdGdCdCdAdGdGdGdCdAdCdG*dG*dG", "chain 2": "dG*dA*dCdTdAdCdAdAdAdGdAdCdGdAdTdGdAdCdGdAdCdAdAdGdAdAdTdTdCdTdTdAdCdGdGdCdGdTdGdCdAdGdTdGdCdTdTdCdAdGdCdCdGdCdTdAdCdCdCdCdGdAdCdC*dA*dC", "modifications": "further chemistry not fully specified"}}, "key": {"[1]": {"system": "HEK293 cells stably expressing eBFP", "assay": "HDR assay, conversion of eBFP to GFP by flow cytometry", "type": "cell-based", "conditions": "oligonucleotide length and modification, sequential delivery, 1 nt substitution, 48 hours", "description": "To generate a HEK293FT stable cell line expressing eBFP, an eBFP ORF was synthesized by GENEART® custom DNA synthesis (Thermo Fisher Scientific) and then cloned into pDONAR221 vector. Using GATEWAY® recombination technology (Thermo Fisher Scientific), the eBFP ORF was transferred to pLenti6.2-DEST Gateway Vector and then verified by sequencing. Lentivirus was generated using VIRAPOWER® kit as described in the manual. To generate stable cell line, HEK293FT cells were transduced with 0.1 MOI of Lentivirus expressing eBFP. Three days post transduction cells were selected on 5 μg/mL Blasticidine antibiotics for 2 weeks. Cells expressing eBFP were then collected and diluted to […] in complete medium and plated into 96 well plates for single cell clone. After 2 weeks clones were isolated and verified for eBFP expression by flow cytometer. In a reporter assay using a stable eBFP-expressing HEK293 cell line, the substitution of C to T in eBFP gene converts His67 to Tyr67, generating a GFP variant (Table 5).\n(§1) To create homologous recombination (HR) assays, a series of gRNAs flanking the insertion site within the EmGFP gene were designed and synthesized (Table 4). Each individual gRNA was combined with GENEART™ […]™ Cas9 Nuclease to form the Cas9 protein/gRNA ribonucleoprotein complexes (Cas9 RNPs). The Cas9 RNPs were then used to transfect cells via NEON® electroporation. The genomic cleavage efficiency was then evaluated using the GENEART® Genomic Cleavage Detection kit at 48 hours post transfection. The gRNAs with highest editing efficiencies and also in close proximity to the insertion site were selected for the subsequent HR assays. For donor design of a single-stranded oligonucleotide, typically the mutation site was positioned at the center flanked by 30 to 50 nucleotides on each side. For asymmetric donor design, 30 nucleotides were placed on either the left or right arm and then 50 or 67 nucleotides on the right or left arm respectively, in both PAM and non-PAM strands. For design of a dsDNA oligonucleotide with single-stranded overhangs, the insertion element was overlapped in the center flanked by various lengths of ssDNA oligonucleotide on each side. By annealing two single-stranded oligonucleotides at 95° C. for 3 minutes, dsDNA donor molecules with either a 5′ protrusion or a 3′ protrusion were generated. To measure homologous recombination efficiency, the donor DNA was either co-transfected with Cas9 RNPs or delivered sequentially into cells via electroporation. At 48 hours post transfection, the gain of EmGFP function in reporter cell lines was determined by flow cytometric analysis with an Attune® NxT Acoustic Focusing Cytometer (Thermo Fisher Scientific). Alternatively, the genomic loci were PCR-amplified using the corresponding primers and then subjected to GENEART® Genomic Cleavage Detection assay or restriction digestion. The resulting PCR products were also subjected to TOPO cloning. Typically, 96 colonies were randomly picked for sequencing. The sequencing data were analyzed using VECTOR NTI ADVANCE® 11.5 software (Thermo Fisher Scientific).\nFor each homologous recombination assay, 1.5 μg of Cas9 protein and 360 ng of gRNA were added to Resuspension Buffer R to a final volume of 7 μl, but limiting the total volume of Cas9 protein plus gRNA to less than 1 μl. The gRNA could be diluted in Buffer R if the concentration was too high. Upon mixing, the sample was incubated at room temperature for 5 to 10 minutes to form Cas9 RNPs. Meanwhile, […]™ HEK293 cells expressing either eBFP or disrupted EmGFP were detached from culture flask with TRYPLE™ Express Enzyme and then counted. Aliquots of 1×10^6 cells were washed once with DPBS without Ca^2+ and Mg^2+ and the cell pellets were resuspended in 50 μl of Resuspension Buffer R. A 5 μl aliquot of cell suspension was mixed with 7 μl of Cas9 RNPs. […] The electroporated cells were transferred to 300 μl of […]. […]"}, "[2]": {"system": "eBFP locus in HEK293 cells expressing eBFP", "assay": "EcoRI restriction digestion of PCR-amplified eBFP locus (FLAG tag/EcoRI insertion)", "type": "cell-based", "conditions": "FIG. 11B, length of 3′ overhang, 48 hours", "description": "FIG. 11. Insertion of a FLAG tag along with an EcoRI site using dsDNA donor with single-stranded overhangs. (A) Various donor DNA molecules containing a 30-base FLAG tag along with an EcoRI site were designed and synthesized, including single-stranded DNA donor (ssDNA), blunt-end dsDNA donor (blunt), dsDNA donor with 5′ overhang (5′), dsDNA donor with 3′ overhang (3′). The length of overhangs varied from 6 nucleotides (6), 15 nucleotides (15) to 30 nucleotides (30). The 3′ and 5′ ends of the oligonucleotides harbored two consecutive phosphorothioate-modified bases (Table 4). The short dsDNA donors with and without overhangs were prepared by annealing two short DNA oligonucleotides. […] At 48 hours post transfection, the eBFP locus was PCR-amplified. The resulting PCR fragments were analyzed by the genomic cleavage and detection assays to determine the percentage of Indel or subjected to restriction digestion with EcoRI to determine the percentage of digestion. (B) Length of 3′ overhang. […] Alternatively, a dsDNA donor with 30-base 3′ overhang but without phosphorothioate modification (30-3′n) was used. The percentage of digestion with EcoRI was determined at 48 hours post transfection. (C) Dose effect. […] The eBFP loci were PCR-amplified. The resulting PCR fragments were analyzed by EcoRI digest. (D) Sequencing verification. The PCR fragments were cloned into E. coli and 192 clones were randomly picked for sequencing. The relative percentage of wild type (wt), NHEJ, and HDR clones derived from either ssDNA donor (ssDNA) or dsDNA with 3′ overhangs (3′ overhang) was plotted. The white rectangles represented the population of clones that contained the insert but with a point mutation. Examples of edited clones were shown in (E) (not representing the actual percentages of NHEJ and HDR). The underlined sequences represented the FLAG tag along with an RI site. FIG. 11 discloses SEQ ID NOs: 15-24, respectively, from top to bottom.\nas §1, with “The sequencing data were analyzed using VECTOR NTI ADVANCE® 11.5 software (Thermo Fisher Scientific).” left out"}}, "note": "Oligonucleotides are written 5' to 3', each unit as a sugar letter and its base; * is a phosphorothioate linkage, no mark a phosphodiester; rarer units and linkages stand in square brackets, end groups in braces. Plain capitals give the bases only. d = 2'-deoxy (DNA); {P} = phosphate"}
{"molecule": "50: unmodified 50-mer ssDNA, BFP point mutation, SEQ ID 54 (DNA CCCACCCTCGTGACCACCCTGACCTACGGCGTGCAGTGCTTCAGCCGCTA; DNA, backbone not given here) [compound 50]", "values": [{"measurement": "Avg (% GFP+ cells)", "setting": "[1]", "value": 14.4, "unit": "%"}]}
{"molecule": "B1", "values": [{"measurement": "Avg (% GFP+ cells)", "setting": "[1]", "value": 38.4, "unit": "%"}]}
{"molecule": "B2", "values": [{"measurement": "Avg (% GFP+ cells)", "setting": "[1]", "value": 39.2, "unit": "%"}]}
{"molecule": "B3", "values": [{"measurement": "Avg (% GFP+ cells)", "setting": "[1]", "value": 38.8, "unit": "%"}]}
{"molecule": "B4", "values": [{"measurement": "Avg (% GFP+ cells)", "setting": "[1]", "value": 32.8, "unit": "%"}]}
{"molecule": "B5", "values": [{"measurement": "Avg (% digestion)", "setting": "[2]", "value": 37.0, "unit": "%"}]}
{"molecule": "B6", "values": [{"measurement": "Avg (% GFP+ cells)", "setting": "[1]", "value": 38.4, "unit": "%"}]}
{"molecule": "B7", "values": [{"measurement": "Avg (% digestion)", "setting": "[2]", "value": 17.3, "unit": "%"}, {"measurement": "Avg (% digestion)", "setting": "[2]; listed as donor DNA molecules with 24-base 3′-protruded ends", "value": "approximately 15%"}]}
{"molecule": "B8", "values": [{"measurement": "Avg (% GFP+ cells)", "setting": "[1]", "value": 34.7, "unit": "%"}]}
{"molecule": "B9", "values": [{"measurement": "Avg (% digestion)", "setting": "[2]", "value": 41.7, "unit": "%"}]}
